The text below walks through data of patent US20090282582A1, “ENVIRONMENTAL STRESS RESPONSIVE PROMOTER AND METHOD OF TISSUE-SPECIFIC GENE EXPRESSION USING THE SAME” (RIKEN, priority 2006, published 2009).

The test system of data set [1] is Arabidopsis thaliana (columbia ecotype) plant body. The data set can be described thus: full-length cDNA microarray analysis of gene expression levels after environmental stress application. The following applies: in vivo. The method in brief:
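Three-week-old Arabidopsis grown at 22° C. on a 16 h light/8 h dark cycle were stressed by 4° C. cold, 2 h open-plate dehydration, or root application of MS medium containing 250 mM NaCl or 100 μM ABA. Total RNA/mRNA from stressed and unstressed plants was reverse transcribed with Cy3/Cy5 dUTP and hybridized to full-length cDNA microarrays.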

Data set [2] deals with transgenic Arabidopsis thaliana plant body (luciferase reporter gene). Kind of data set: luciferase assay of promoter::LUC transgenic plants after environmental stress application. The following applies: for activity to induce gene expression compared with other promoters: in vivo; for Tissue allowing specific induction: summary over stress types. The class given is in vivo. In short, it runs like this:
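Arabidopsis lines carrying promoter::luciferase, 10 days after sowing on MS agar, sprayed with 1 mM luciferin (0.01% Triton-X), 5 min dark, imaged by ARGUS before stress. Stresses: 4° C, 2 h air dehydration, 250 mM NaCl or 100 μM ABA to roots; luminescence at 2, 5, 10 h.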

B1: Promoter of RAFL09-07-M01: environmental stress responsive promoter DNA, SEQ ID NO: 7, upstream of At4g20830 (protein containing FAD-binding domain) (nucleic acid, listed as Arabidopsis thaliana)
DNA: AGGTGCAGGAGATTGAATCGAAGCTTCGTTTATAAAACAATGTACATAGTTGTTTAAAGTCTTAAAGTTGGACTTTTCTTTTGCTCAGCCCCACAAACCCAATTGGATTATAATACCGACGCCGACCAATCAATGCTACGACCATTGACTTATAAAACATACATCGGACACACACAAAAAAAAACTACACTTTTTGTATCAGCAATCTTTTTAGTTATTTGTTTTCAGTTATATAAATCAATGTTTGTGTTTTCTAATAACAGTTATTAGTATGCTAGTGATGCATGGTTAAAAAAAAAAAAAGAAATTTCAAATATATATTTTAATTTGCATTATGTAAAATATTTTAAAAATAAGTCCCTAGTACCAATGGAGTGTTTTTGTTTAAGCTACAAGTGAATTATAATACGTAGTAATCTTGATTCAAATGGAAAGATTTACCATGTGGGTCTATACCAAAACCGTGTCCTTTTTCATATGTATGAATCTCTAATAGTTGCTTCTTTTGACTAGAATAATTTGTAAAGTAACTCCTAATTCATAAATATTGAAGATTAGTCTGATTTATTATTAATATGCAAATCTCTGATTAATAAGAAATAAATTATAATAGAAATATTGATGTGTACTGATCATCTTTTAATAAATGTTTGAGACTACAAATACTATAATGAATCAAATGAACATAAATGTATAGATGAACTGAATAAAATTCCAGATACACCTTGAATTAAATATGTATTCATAGTATTTTTTTTTAAAATGAAATCTGGATTTTAAATCCTTATTATTCAAAAAAATCTTCTCCTTTGATATTTTTGCTATAACAAATTAAAATAAAATCTGTAATCACTAATCATATCCCTTAACTCCCTTTAATATCTTTTGTTGACCAAAACAAATATTTTTTTGTTATATGCAACGAATAAAAAAACATTGAAAGTACTTTCCAAAAACAAAACACGTCTTCTTCTCCCTGCGGTTATAAATAGACACGGATAAGTACAAAGAACAGAGGAACACGAGACCCAAGAAAAAGATCTCAAA
As for B1, in data set [1], the “Environmental stress type to which the promoter responds” value was “Dehydration and salt”. For the same molecule, the “Tissue in which specific induction of expression is realized” value (shortened to “Tissue in which specific induction”) in data set [2] (Salt stress (250 mM NaCl)) is “Stem and leaf tissue and root tissue”. In addition, the “Tissue in which specific induction” value in data set [2] (Salt stress (250 mM NaCl), listed as promoter of RAFL09-07-M01) is “stem and leaf tissue and root tissue”. Moreover, in data set [2], the “activity to induce gene expression compared with other promoters” value is given as “lower than that of other promoters”; the “Tissue allowing specific induction” value was “Stem and leaf tissue and root tissue”.

B2: Promoter of RAFL08-17-O07: environmental stress responsive promoter DNA, SEQ ID NO: 8, upstream of At2g29450 (glutathione S-transferase) (nucleic acid, listed as Arabidopsis thaliana)
DNA: CGGTGGCAAAACAATTGGATTTTTGGACTTGGTCGCAGGAAGTATGATCCCGTTTTGTCTTGCTCGAGGTTGGGAAGGTATGGGAATTGATATGATTCCAGAGGAAAAGTTTCCAGAGCTAAACAGATGGATCAAAAATTTGAAAGAAATTGAGATCGTGAGAGAATGTATTCCTCCTAGAGAGGAACAAATTGAGCATATGAAGAAAGTTGTAGAAAGAATCAAATCAGCCTAAGAGACAACAATGATACTCTTCGATCAGTAGATGTTAACTATATGTTTGTGTAATCTTGTTATAATAGTTTGTATGAACAATAAATGAAACATTTGTATGAACAATTAGTGTTTTTACTAAATTCTAATGTCAATTAATTATTATAAACATTTTAAATGTAGTAGTATTCAATTTCTTACAAATCATAAGAAATTGGTTCATAAACCTGGAGTTTTCATATGAAAGAAAAGTAGATAAAAGCTATAATTTAGTCAAACCATCCTTCTTAATAAAACCACAACTATGATTAAATGTGAACATGTATTTCGACACGTAAGAAGTTGTGTAAACAGAGGAAAGTACAACGGACATGTGGGTCTATTTGTTGCGGCACAATATAACAAATTTCTTTAGTATATTTTTAGTATCGTGAGGTGGTGAGTCTTGTAACCATAGAAAATTCACCGATACTTTATAACATTGTTGGAAGGAAAATTCAGCAAACAAGTTCGTAGATGGAGAAACGGAAAAACCAACGCCTATTATAACAACAACATTTTTAATATATGCCAAAAGGAACATCAAATAACAGATTAGTACTAATTCTTTTTTTATAGCTCAGACTATAGAGTTGTTTGTTTTCTTGGGCGTCAATATAACAAACGAGAATGACAAATGGTTTTAAAGCTGTTGATGTTTCATACACAGACAAAATGGATCAATTATGAAGAACCACGATAAAGTGATGGGTATAATTGGGGAAGCAGAAGAAATTCTTGACGAAGCATGGGGTTGTCTTCAGAAAATGAATGGATCAAGTCAAGGTACACATGCTCCAGGGATAAGGCAAGGTTAGGAATTAGGACACATCTCCACTTACTAAAAAAGAGATAAAAAAAAATTATAAAGGGAACGTTATAAATATGTTGTAAAGTCAACATCTGTTTCCTTCTAGACTCTTCGCATTTACATCACACTGCCGACCATATAAAACGGCAAAGTTCGTCGTCGTTTTATCACAAGACCATCAACACCATAAGGCTATAAATCCAAGCTAAAAGGTAGTGATTAACTCCACAAAACCAGAAAAAACTACATTTCTAACATATAGAAGAAACAGAGAAAAAGAGAGAGAGACCCCTA
Consider B2, for which the “Environmental stress type to which the promoter responds” value in data set [1] is “Dehydration and salt”. Besides, the “Tissue in which specific induction” value in data set [2] (ABA stress (100 μM ABA)) was “Root tissue”; in data set [2] (ABA stress (100 μM ABA), listed as promoter of RAFL08-17-O07), “root tissue”. For the same molecule, the “activity to induce gene expression compared with other promoters” value in data set [2] is “lower than that of other promoters”. Besides, the “Tissue allowing specific induction” value in data set [2] is on record as “Root tissue”.
